US20260250404A1

Biological target: human FcγRIa on the cell surface (transfected CHO-S cells, M0/M1 macrophages, hMDM, FcγRI effector reporter cells) (human) (UniProt P12314)
Assay: flow cytometry on CHO-S cells transiently expressing human FcγRIa, PE goat anti-human IgG F(ab')2, % PE+ cells

human FcγRIa on the cell surface (transfected CHO-S cells, M0/M1 macrophages, hMDM, FcγRI effector reporter cells) (human), sequence (P12314 16-374): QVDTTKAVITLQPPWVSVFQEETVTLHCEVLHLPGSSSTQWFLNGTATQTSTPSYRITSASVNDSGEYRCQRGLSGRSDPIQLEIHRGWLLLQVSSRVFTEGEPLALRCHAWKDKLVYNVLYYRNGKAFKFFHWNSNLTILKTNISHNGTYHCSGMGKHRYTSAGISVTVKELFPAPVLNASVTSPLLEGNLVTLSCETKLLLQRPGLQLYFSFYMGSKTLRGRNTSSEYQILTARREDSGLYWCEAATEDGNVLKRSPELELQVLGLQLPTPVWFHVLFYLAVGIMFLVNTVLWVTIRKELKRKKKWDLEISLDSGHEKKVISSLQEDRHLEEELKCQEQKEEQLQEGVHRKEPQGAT

## cemiplimab (antibody)
  EC50 (read off the curve): 0.3 µg/mL
